Experiment: yeast display, Sf9 membrane polyspecificity reagent, FACS + sequencing; frameworks hold sequencing errors
Procedure, shortened: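 Nanobodies from a synthetic yeast display library (Saccharomyces cerevisiae BJ5465), induced 36–48 hours with galactose, were stained 1 hour at 4 °C with 10% biotinylated, detergent-solubilized Sf9 membrane reagent, enriched on streptavidin microbeads, then FACS-sorted. Anti-HA (expression) and streptavidin (reagent binding) fluorescence set low and high (top ~1%) gates. Polyreactivity labels come from the gate of origin. Genes were colony-PCR amplified, MiSeq 2 × 250 sequenced and filtered by CDR length.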

| Sequence | polyreactivity (PSR sort gate) |
| --- | --- |
| QVQLLESGGGLVQAGGSLRLSCAASGLTFTAYVMGWYRHAPGKERELVAAISGGGSTYADSVKGRFTISGDNAKNTVSLQMNSLKPEDTAVYYCNADGWGDRFWSNFRFDYWGQGTQVTVSS | low polyreactivity |
| QVQLVESGGALVQAGATLRISSAASGSIFYRNSMRWYRQAPGKEREKVAANSSDGSRNYADSVKGRFSISRDNAKNTVYLQMNSLKPEDNAVYYCAVDYGTQYGEYTYYDYDYWGQCTQVTVSS | low polyreactivity |
| QVKRVESGGGLVQAGGSLRLSCAASGSTFYDYAMGWYRPAHGKQRELVAAINGNGDSTYYADSVKGRFTISRDNAKNTVYLQMNSLKPEDTAVYYCAAYLGWGYDYWGQGTQVTVSS | low polyreactivity |
| QVQLVESGGGLVQAGGSLRLSCAASGLIFTPYAMGWYRQAPGKERELVAAINYGGSRTYYADSVKGRFTISRDNAKNTVYLQMNSLKPEDTAVYYCAARGFTLSYVDMYYWGLGTQVTVSS | high polyreactivity |
| QVQLVESGGGLVQAGGSLRLRCAASGRTLGRYAMGWYRQAPGKDRELVAAIRIGGGSTYYADSVKGRFTISRDNAKNTVYLQMISLKPEDTAVYYCATRGYINGAGFGYWGQGTQVTVSS | high polyreactivity |
| QVQLVESGGGLVQAGGSLRLSCAASGRIFARYTMGWYRQAPGKERDLVAAISRGGGTNYADSVKGRFTISRDNAKNTVYLQMNSLKPEDTAVSYCAADVSLVYPYSYRYYYWGQGTQVTVSS | low polyreactivity |
| QVQLVESGGGLVQAGGSLRLSCAASGRIFTGYAMGWYRQAPGKERELVATIRSRGGGTYYADSVKGRFTISRDNAKNTVYLQMNSLKPEDTAVYYCAADDYYYYFGTRYGYWRQGTQVTVSS | low polyreactivity |
| QVQLVESGGGLVQAGGSLRLTCAASVSIFSVYARGWYRQAPGKERELVADINIGGASTYYADSVKGRFTISRDNAKNTVFLQMNSVIPEDTAVYSCAKEYYEGYFPTFDYDYWGQGTQVNVSS | low polyreactivity |
| QVQLVESGGGLVQAGGSLRLSCAASGRIFAFYAMGWYRPAPGKEREFVAAITYSGGNTNYADSVKGRFTISRDNAKNTVYIEMNSLKPEDTPVYYCAADLVYGVYYQEDYWGQGTQVTVSS | low polyreactivity |
| QVQHVESGGGLVQAGGSLRLSCAASVRTLYYYAMGWYRQAPGKERELVAAISGGGRTYYADSVKGRFTISRDNAKNTVYLQMNSLKPEDTAVYYCASRYRKSGLDNYWGQGTQVTVSS | high polyreactivity |
| QVQLVESGGGLVQAGGSLRLSRAASGITFGFKAMGWYRQAPGKERELVAAITWSVGRTYYADSVKGRFTISRDNAKNTVYLQMNSLKPEDTAVYYCAKDFEAGDDYFAYDYWGQGTQVTVSS | low polyreactivity |
| QVQLVESGVGLVQAGGSLRLSCDATGSILGINVMGWYRQAPGKEREVVAAISRRGGSTYYADSVKGRFTISRDNSKNTVYLQMNSLKPEDTAVYYCAAGTSYYYGSYRFYYWGQGTQVTVSS | high polyreactivity |
| QVQLVESGGGLVQAGGSLRLTCAASGFTFPYYAMGWYRQAPGKERELVAAIDWTGGSTYYADSVKGRFTISRDNAKNTVYLQMNSLKPEDTAVYYCNRELTSPRRWHVSRAYDYWGQGTQVTVSS | low polyreactivity |
| QVQLVESGGGLVQAGGSLRLSCAASGRILYGYTMGWYRQAPGKEREFVATITRGGSTYYADSVKGRFTISRDNAKNTVYLQMNSLKPEDTAVYYCAAELSLATPTVPWYLYNYWGQGTQVTVSS | low polyreactivity |
| QVQLVESGGGLVQAGGSLRLSCAASGLTLRNYAMGWYRQAPGKERELVAAITTGGGRTYYADSVKGRFTISRDNAKNTVYLQMNSLKPEDTAVYYCAAERAILSSDKQSLWRFDYWGQGTQVTVSS | low polyreactivity |
| QVQLVESGGGLVQAGGSLRLSCAASGRIFRNAMGWYRQAPGKERELVAAISSGGSTNYADSVKGRFTISRDNAKNTVYLQMNSLKPEDTAVYYCAADWDWWYQEFDYWGQGTQVTVSS | high polyreactivity |

| Sequence | polyreactivity (PSR sort gate) |
| --- | --- |
| QVQLVESGGGLVQAGGSLRLSCAASGFTFRFYALGWYRQAPGKERELVAAISRRGGTTYYADSVKGRFTISRDNAKNTVYLQMNSLKPEDTAVYYCNKDWTYEHGYWGQGTQVTVSS | high polyreactivity |
| QVQLVESGGGLVQAGGSLRLSCAASGFIFTDYAMGWYRQATGQEREFVAAIDWSGGNTYYADSVKGRFTISRDNAKNTVYLQLNSLKPEDTAVFFCSASGSAREYDYWGQGTQVTVSS | low polyreactivity |
| QDQLVESGGGLVQARGTLRLSCAASGRTFYQNAMGWYRHAPGKEREFVGAITGGTGSTHYADSVKGRFTISRDNAKNTVFLQMNSLKPEDTAVYYCATRYLLGFSRYDYCGQGTQVTVSS | low polyreactivity |
| QVQLVESGGGLVQAGGSLRLSCAASGITFDKNTMGWYRQAPGKERELVAAISARGGSTYYADSVKGRFTISRDNAKNTVYLQMNSLKPEDTAVYSCAADYSARYGYWGQGTQVNVSS | high polyreactivity |
| QVQLVESGGGLVQAGGSLRLSCAASGFTFYRYAMGWYRQAPGKERELVAAITRTGSTYYADSVKGRFTISRDNAKNTVYLQMNSLKPEDTAVYYCARRSLYFPSYGLYYWGQGTQVTVSS | high polyreactivity |
| QVQLVESGGGLVQAGGSLRLTCAASGRTFSKYAMGWYRQATGKERELVAAITSGGGTYYADSVKGRFTISRDNAKNTVYLQMNSLNPEDTAVYYCAVSVTTVSTYDYWGQGTQVTVSS | low polyreactivity |
| QVQLVESGGGLVQAGGSLRLSCAASGRIFTIYSMGWYRQAPGKERELVATISKSGGITYYADSVKGRFTISRDNAKNTVYLQMNSLKPEDTAVYYCAAAWYYSSRGFHATWGHDYWGQGTQVTVSS | low polyreactivity |
| QVQLVESGGGLVQAGGSLRLSCAASGSTVDRYAMGGYRQAPGKERELVAAITSSGGSTYDADSVKGRFTISRDNAKNTVYVQMNSLKPEDTAVYYCNALITYSTDYWGQGTQVTVSS | low polyreactivity |
| QVQLVESGGGLVQAGGSLRLSCAASGITFYSYAMGSYRQAPGKERELVAAISWRGGSTRYADSVKGRFTISRDNAKNTVYLQMNSLKPEDTAVYYCAARLRTKLPIPSTVGYWGQGTQVTVSS | high polyreactivity |
| QVQLVESGGGLVQAGGSLRLSCAASGRTLYRYTMGWYRQAPGKERELVAAISRGGSTYYADSVKGRFTISRDNAKNTVYLQMNSLKPEDTAVYYCAAVYSYTSWQTWWPEYDYWGQGTQVTVSS | high polyreactivity |
| QVQHVESGGGLVQAGGSLRLSCAASGSTFDSNDMGWYRQAPGKEWELVPGITWSGASTYYADSVKGRFTISRDNAKNTVYLQMNSLKPEDTAVYYCAAGPWGTGHYVQGPVYYYRYDYWGQGTQVTVSS | low polyreactivity |
| QVQLVESGGGLVQAGGSLRLSCAASGSIFQAYVMGWYRQAPGKERELVATIDRRGGITYYADSVKGRFTISRDNAKNTVYLQMNSLKPEDTAVYYCATRTRLAQYSRGRYRYDYWGQGTQVTVSS | high polyreactivity |
| QVQLVESGGGLVQEGGSLRLSCAASGSNLKGYAMGWYRQAPGKERELVARITRGGSTNYADSVKGRFTISRDNAKNTVYLQRNSLKPEDTAVYYCNKSGRWSARSASREVGDDYWGQGTQVTVSS | low polyreactivity |
| QVQLVESGGGLVHAGGSLRLSCAASGSTFVRNAMGWYRQAPGKERELVAAITSRGGSTYYADSVKGRFTISRDNAKNTVYLQMNSLKPEDTAVYYCAARFGVKRGQYDYWGQGTQVTVSS | high polyreactivity |
| QVQLVESGGGLVQAGGSLRISCAASGRTVAIYAMGWYIKAPGKEREFVAAISWSGGDTYYADSVKGRFTISRDNAKNTVYLQMNSLKPVDPAVYYCAARDNDYEGRDLQYELDYWGQGTQVTVSS | low polyreactivity |

— the nanobody polyreactivity screen of Harvey et al. (2022)
